# Experimental data reported in the MegaScale stability set (Tsuboyama et al. 2023).
# B1: EEHEE_rd4_0469 (parent)
# chain: ITIHVNGVTYHFDNPEEAEKFAQKMAKTYQLKMEIHNGEFHME
# Variants of: B1
# Assay: folding stability dG (cDNA display proteolysis); higher = more stable
# Conditions: PBS, room temperature
row,Variant,folding stability dG
1,ITIHVNGVTYHFDNPEEAEKFIQKMAKTYQLKMEIHNGEFHME,1.46 kcal/mol
2,ITIHVNGVTYHFDNPEEAEKFKQKMAKTYQLKMEIHNGEFHME,0.843 kcal/mol
3,ITIHVNGVTYHFDNPEEAEKFLQKMAKTYQLKMEIHNGEFHME,0.879 kcal/mol
4,ITIHVNGVTYHFDNPEEAEKFMQKMAKTYQLKMEIHNGEFHME,1.19 kcal/mol
5,ITIHVNGVTYHFDNPEEAEKFNQKMAKTYQLKMEIHNGEFHME,0.367 kcal/mol
6,ITIHVNGVTYHFDNPEEAEKFQQKMAKTYQLKMEIHNGEFHME,0.662 kcal/mol
7,ITIHVNGVTYHFDNPEEAEKFRQKMAKTYQLKMEIHNGEFHME,1.06 kcal/mol
8,ITIHVNGVTYHFDNPEEAEKFSQKMAKTYQLKMEIHNGEFHME,0.704 kcal/mol
9,ITIHVNGVTYHFDNPEEAEKFTQKMAKTYQLKMEIHNGEFHME,0.747 kcal/mol
10,ITIHVNGVTYHFDNPEEAEKFVQKMAKTYQLKMEIHNGEFHME,1.4 kcal/mol
11,ITIHVNGVTYHFDNPEEAEKFWQKMAKTYQLKMEIHNGEFHME,0.941 kcal/mol
12,ITIHVNGVTYHFDNPEEAEKFYQKMAKTYQLKMEIHNGEFHME,1.01 kcal/mol
13,ITIHVNGVTYHFDNPEEAEKFAAKMAKTYQLKMEIHNGEFHME,1.24 kcal/mol
14,ITIHVNGVTYHFDNPEEAEKFACKMAKTYQLKMEIHNGEFHME,2.52 kcal/mol
15,ITIHVNGVTYHFDNPEEAEKFADKMAKTYQLKMEIHNGEFHME,0.989 kcal/mol
16,ITIHVNGVTYHFDNPEEAEKFAEKMAKTYQLKMEIHNGEFHME,1.14 kcal/mol
17,ITIHVNGVTYHFDNPEEAEKFAFKMAKTYQLKMEIHNGEFHME,1.19 kcal/mol
18,ITIHVNGVTYHFDNPEEAEKFAGKMAKTYQLKMEIHNGEFHME,0.566 kcal/mol
19,ITIHVNGVTYHFDNPEEAEKFAHKMAKTYQLKMEIHNGEFHME,0.988 kcal/mol
20,ITIHVNGVTYHFDNPEEAEKFAIKMAKTYQLKMEIHNGEFHME,1.27 kcal/mol
21,ITIHVNGVTYHFDNPEEAEKFAKKMAKTYQLKMEIHNGEFHME,1.07 kcal/mol
22,ITIHVNGVTYHFDNPEEAEKFALKMAKTYQLKMEIHNGEFHME,1.25 kcal/mol
23,ITIHVNGVTYHFDNPEEAEKFAMKMAKTYQLKMEIHNGEFHME,1.29 kcal/mol
24,ITIHVNGVTYHFDNPEEAEKFANKMAKTYQLKMEIHNGEFHME,0.986 kcal/mol

row,Variant,folding stability dG
1,ITIHVNGVTYHFDNPEEAEKFARKMAKTYQLKMEIHNGEFHME,1.35 kcal/mol
2,ITIHVNGVTYHFDNPEEAEKFASKMAKTYQLKMEIHNGEFHME,1.05 kcal/mol
3,ITIHVNGVTYHFDNPEEAEKFATKMAKTYQLKMEIHNGEFHME,1.19 kcal/mol
4,ITIHVNGVTYHFDNPEEAEKFAVKMAKTYQLKMEIHNGEFHME,1.26 kcal/mol
5,ITIHVNGVTYHFDNPEEAEKFAWKMAKTYQLKMEIHNGEFHME,1.36 kcal/mol
6,ITIHVNGVTYHFDNPEEAEKFAYKMAKTYQLKMEIHNGEFHME,1.28 kcal/mol
7,ITIHVNGVTYHFDNPEEAEKFAQAMAKTYQLKMEIHNGEFHME,1.11 kcal/mol
8,ITIHVNGVTYHFDNPEEAEKFAQDMAKTYQLKMEIHNGEFHME,1.09 kcal/mol
9,ITIHVNGVTYHFDNPEEAEKFAQEMAKTYQLKMEIHNGEFHME,1.39 kcal/mol
10,ITIHVNGVTYHFDNPEEAEKFAQFMAKTYQLKMEIHNGEFHME,1.99 kcal/mol
11,ITIHVNGVTYHFDNPEEAEKFAQGMAKTYQLKMEIHNGEFHME,0.646 kcal/mol
12,ITIHVNGVTYHFDNPEEAEKFAQHMAKTYQLKMEIHNGEFHME,1.51 kcal/mol
13,ITIHVNGVTYHFDNPEEAEKFAQIMAKTYQLKMEIHNGEFHME,1.41 kcal/mol
14,ITIHVNGVTYHFDNPEEAEKFAQLMAKTYQLKMEIHNGEFHME,1.48 kcal/mol
15,ITIHVNGVTYHFDNPEEAEKFAQMMAKTYQLKMEIHNGEFHME,1.41 kcal/mol
16,ITIHVNGVTYHFDNPEEAEKFAQNMAKTYQLKMEIHNGEFHME,0.976 kcal/mol
17,ITIHVNGVTYHFDNPEEAEKFAQPMAKTYQLKMEIHNGEFHME,-0.407 kcal/mol
18,ITIHVNGVTYHFDNPEEAEKFAQQMAKTYQLKMEIHNGEFHME,1.2 kcal/mol
19,ITIHVNGVTYHFDNPEEAEKFAQRMAKTYQLKMEIHNGEFHME,1.31 kcal/mol
20,ITIHVNGVTYHFDNPEEAEKFAQSMAKTYQLKMEIHNGEFHME,0.939 kcal/mol
21,ITIHVNGVTYHFDNPEEAEKFAQTMAKTYQLKMEIHNGEFHME,1.1 kcal/mol
22,ITIHVNGVTYHFDNPEEAEKFAQVMAKTYQLKMEIHNGEFHME,1.29 kcal/mol
23,ITIHVNGVTYHFDNPEEAEKFAQWMAKTYQLKMEIHNGEFHME,2.29 kcal/mol
24,ITIHVNGVTYHFDNPEEAEKFAQYMAKTYQLKMEIHNGEFHME,2.27 kcal/mol

row,Variant,folding stability dG
1,ITIHVNGVTYHFDNPEEAEKFAQKAAKTYQLKMEIHNGEFHME,0.464 kcal/mol
2,ITIHVNGVTYHFDNPEEAEKFAQKCAKTYQLKMEIHNGEFHME,1.66 kcal/mol
3,ITIHVNGVTYHFDNPEEAEKFAQKDAKTYQLKMEIHNGEFHME,-0.066 kcal/mol
4,ITIHVNGVTYHFDNPEEAEKFAQKEAKTYQLKMEIHNGEFHME,0.109 kcal/mol
5,ITIHVNGVTYHFDNPEEAEKFAQKFAKTYQLKMEIHNGEFHME,0.692 kcal/mol
6,ITIHVNGVTYHFDNPEEAEKFAQKGAKTYQLKMEIHNGEFHME,-0.244 kcal/mol
7,ITIHVNGVTYHFDNPEEAEKFAQKHAKTYQLKMEIHNGEFHME,0.288 kcal/mol
8,ITIHVNGVTYHFDNPEEAEKFAQKIAKTYQLKMEIHNGEFHME,0.968 kcal/mol
9,ITIHVNGVTYHFDNPEEAEKFAQKKAKTYQLKMEIHNGEFHME,-0.083 kcal/mol
10,ITIHVNGVTYHFDNPEEAEKFAQKLAKTYQLKMEIHNGEFHME,1.12 kcal/mol
11,ITIHVNGVTYHFDNPEEAEKFAQKNAKTYQLKMEIHNGEFHME,0.081 kcal/mol
12,ITIHVNGVTYHFDNPEEAEKFAQKPAKTYQLKMEIHNGEFHME,-0.979 kcal/mol
13,ITIHVNGVTYHFDNPEEAEKFAQKQAKTYQLKMEIHNGEFHME,0.418 kcal/mol
14,ITIHVNGVTYHFDNPEEAEKFAQKRAKTYQLKMEIHNGEFHME,0.041 kcal/mol
15,ITIHVNGVTYHFDNPEEAEKFAQKSAKTYQLKMEIHNGEFHME,0.059 kcal/mol
16,ITIHVNGVTYHFDNPEEAEKFAQKTAKTYQLKMEIHNGEFHME,0.301 kcal/mol
17,ITIHVNGVTYHFDNPEEAEKFAQKVAKTYQLKMEIHNGEFHME,0.732 kcal/mol
18,ITIHVNGVTYHFDNPEEAEKFAQKWAKTYQLKMEIHNGEFHME,1.07 kcal/mol
19,ITIHVNGVTYHFDNPEEAEKFAQKYAKTYQLKMEIHNGEFHME,0.664 kcal/mol
20,ITIHVNGVTYHFDNPEEAEKFAQKMDKTYQLKMEIHNGEFHME,0.963 kcal/mol
21,ITIHVNGVTYHFDNPEEAEKFAQKMEKTYQLKMEIHNGEFHME,1.12 kcal/mol
22,ITIHVNGVTYHFDNPEEAEKFAQKMFKTYQLKMEIHNGEFHME,1.19 kcal/mol
23,ITIHVNGVTYHFDNPEEAEKFAQKMGKTYQLKMEIHNGEFHME,0.919 kcal/mol
24,ITIHVNGVTYHFDNPEEAEKFAQKMHKTYQLKMEIHNGEFHME,0.851 kcal/mol

row,Variant,folding stability dG
1,ITIHVNGVTYHFDNPEEAEKFAQKMIKTYQLKMEIHNGEFHME,1.31 kcal/mol
2,ITIHVNGVTYHFDNPEEAEKFAQKMKKTYQLKMEIHNGEFHME,1.01 kcal/mol
3,ITIHVNGVTYHFDNPEEAEKFAQKMLKTYQLKMEIHNGEFHME,1.25 kcal/mol
4,ITIHVNGVTYHFDNPEEAEKFAQKMMKTYQLKMEIHNGEFHME,1.46 kcal/mol
5,ITIHVNGVTYHFDNPEEAEKFAQKMNKTYQLKMEIHNGEFHME,0.766 kcal/mol
6,ITIHVNGVTYHFDNPEEAEKFAQKMPKTYQLKMEIHNGEFHME,0.076 kcal/mol
7,ITIHVNGVTYHFDNPEEAEKFAQKMQKTYQLKMEIHNGEFHME,0.97 kcal/mol
8,ITIHVNGVTYHFDNPEEAEKFAQKMRKTYQLKMEIHNGEFHME,1.1 kcal/mol
9,ITIHVNGVTYHFDNPEEAEKFAQKMSKTYQLKMEIHNGEFHME,1.04 kcal/mol
10,ITIHVNGVTYHFDNPEEAEKFAQKMTKTYQLKMEIHNGEFHME,0.708 kcal/mol
11,ITIHVNGVTYHFDNPEEAEKFAQKMVKTYQLKMEIHNGEFHME,0.794 kcal/mol
12,ITIHVNGVTYHFDNPEEAEKFAQKMWKTYQLKMEIHNGEFHME,1.63 kcal/mol
13,ITIHVNGVTYHFDNPEEAEKFAQKMYKTYQLKMEIHNGEFHME,1.45 kcal/mol
14,ITIHVNGVTYHFDNPEEAEKFAQKMAATYQLKMEIHNGEFHME,1.32 kcal/mol
15,ITIHVNGVTYHFDNPEEAEKFAQKMADTYQLKMEIHNGEFHME,1.5 kcal/mol
16,ITIHVNGVTYHFDNPEEAEKFAQKMAETYQLKMEIHNGEFHME,1.51 kcal/mol
17,ITIHVNGVTYHFDNPEEAEKFAQKMAFTYQLKMEIHNGEFHME,1.25 kcal/mol
18,ITIHVNGVTYHFDNPEEAEKFAQKMAGTYQLKMEIHNGEFHME,0.713 kcal/mol
19,ITIHVNGVTYHFDNPEEAEKFAQKMAHTYQLKMEIHNGEFHME,0.969 kcal/mol
20,ITIHVNGVTYHFDNPEEAEKFAQKMAITYQLKMEIHNGEFHME,1.34 kcal/mol
21,ITIHVNGVTYHFDNPEEAEKFAQKMALTYQLKMEIHNGEFHME,1.34 kcal/mol
22,ITIHVNGVTYHFDNPEEAEKFAQKMAMTYQLKMEIHNGEFHME,1.22 kcal/mol
23,ITIHVNGVTYHFDNPEEAEKFAQKMANTYQLKMEIHNGEFHME,0.922 kcal/mol
24,ITIHVNGVTYHFDNPEEAEKFAQKMAPTYQLKMEIHNGEFHME,1.22 kcal/mol

row,Variant,folding stability dG
1,ITIHVNGVTYHFDNPEEAEKFAQKMAQTYQLKMEIHNGEFHME,1.24 kcal/mol
2,ITIHVNGVTYHFDNPEEAEKFAQKMARTYQLKMEIHNGEFHME,1.09 kcal/mol
3,ITIHVNGVTYHFDNPEEAEKFAQKMASTYQLKMEIHNGEFHME,1 kcal/mol
4,ITIHVNGVTYHFDNPEEAEKFAQKMATTYQLKMEIHNGEFHME,1.02 kcal/mol
5,ITIHVNGVTYHFDNPEEAEKFAQKMAVTYQLKMEIHNGEFHME,1.22 kcal/mol
6,ITIHVNGVTYHFDNPEEAEKFAQKMAWTYQLKMEIHNGEFHME,1.38 kcal/mol
7,ITIHVNGVTYHFDNPEEAEKFAQKMAYTYQLKMEIHNGEFHME,1.27 kcal/mol
8,ITIHVNGVTYHFDNPEEAEKFAQKMAKAYQLKMEIHNGEFHME,1.26 kcal/mol
9,ITIHVNGVTYHFDNPEEAEKFAQKMAKDYQLKMEIHNGEFHME,1.87 kcal/mol
10,ITIHVNGVTYHFDNPEEAEKFAQKMAKEYQLKMEIHNGEFHME,2 kcal/mol
11,ITIHVNGVTYHFDNPEEAEKFAQKMAKFYQLKMEIHNGEFHME,1.67 kcal/mol
12,ITIHVNGVTYHFDNPEEAEKFAQKMAKGYQLKMEIHNGEFHME,0.636 kcal/mol
13,ITIHVNGVTYHFDNPEEAEKFAQKMAKHYQLKMEIHNGEFHME,1.45 kcal/mol
14,ITIHVNGVTYHFDNPEEAEKFAQKMAKIYQLKMEIHNGEFHME,1.6 kcal/mol
15,ITIHVNGVTYHFDNPEEAEKFAQKMAKKYQLKMEIHNGEFHME,1.69 kcal/mol
16,ITIHVNGVTYHFDNPEEAEKFAQKMAKLYQLKMEIHNGEFHME,1.97 kcal/mol
17,ITIHVNGVTYHFDNPEEAEKFAQKMAKMYQLKMEIHNGEFHME,1.65 kcal/mol
18,ITIHVNGVTYHFDNPEEAEKFAQKMAKNYQLKMEIHNGEFHME,1.24 kcal/mol
19,ITIHVNGVTYHFDNPEEAEKFAQKMAKPYQLKMEIHNGEFHME,0.094 kcal/mol
20,ITIHVNGVTYHFDNPEEAEKFAQKMAKQYQLKMEIHNGEFHME,1.51 kcal/mol
21,ITIHVNGVTYHFDNPEEAEKFAQKMAKRYQLKMEIHNGEFHME,1.65 kcal/mol
22,ITIHVNGVTYHFDNPEEAEKFAQKMAKSYQLKMEIHNGEFHME,0.87 kcal/mol
